Measured values published in patent US20220406376A1 (MacroGenics, published 2022).
Where a chain is given by its changes, count along the chain named. Numbers in names are those of the source.

B1: hCD137 MAB-3 (1E.15) (antibody, V domains shown)
VH: QVQLVQSGAEVKKPGASVKVSCKASGYTFTSYWINWVRQAPGQGLEWIGNIYPSDSYTNYNQKFKDKATITADKSTSTAYMELSSLRSEDTAVYYCTRDYGSAYSMSTWGQGTTVTVSS
VL: DIQMTQSPSSLSASVGDRVTITCQASQDISNYLNWYQQKPDKTVKLLIYYTGRARSGVPSRFSGSGSGTDFTFTISSLQPEDIATYFCQQGDTLPYTFGQGTKLEIK
B2: hCD137 MAB-4 (1.1) (antibody, V domains shown)
VH: QVQLVQSGAEVKKPGASVKVSCKASGYTFTSYWINWVRQAPGQGLEWMGNIYPSDSYTNYDQKFKDRVTMTRDTSTSTVYMELSSLRSEDTAVYYCTKSGEYGKIGYYAMDYWGQGTTVTVSS
VL: B1 VL with Q24R, G52S, A54L, R55H, F71Y, F73L, D92N
notes: also called chCD137 MAB-4 (1.1)
B3: hCD137 MAB-3 (1G.15) (antibody, V domains shown)
VH: B1 VH with I48A
VL: B1 VL
B4: hCD137 MAB-3 VH1B with VL12 (I48A/S52T) (antibody, V domains shown)
VH: B1 VH with R38K
VL: B1 VL with Q24R, A25P, I48A, G52T, A54L
B5: hCD137 MAB-4 (1.2) (antibody, V domains shown)
VH: B2 VH
VL: B1 VL with Q24R, G52S, A54L, R55H, F71Y, F73L, F87Y, D92N
notes: also called chCD137 MAB-4 (1.2)
B6: hCD137 MAB-3 (1.3) (antibody, V domains shown)
VH: B1 VH with R38K, A103S, M106F, S107D, T108Y
VL: B1 VL with Q24R, A25P, G52S, A54L
notes: also called chCD137 MAB-3 (1.3)
B7: hCD137 MAB-3 (1.2) (antibody, V domains shown)
VH: B1 VH with R38K, A103S, M106F, S107D, T108Y
VL: B1 VL with Q24R, A25P, D41G, K42G, G52S, A54L
notes: also called chCD137 MAB-3 (1.2)
B8: hCD137 MAB-3 (1.1) (antibody, V domains shown)
VH: B1 VH with R38K, A103S, M106F, S107D, T108Y
VL: B1 VL with Q24R, A25P, K42G, G52S, A54L
notes: also called chCD137 MAB-3 (1.1)

Columns and labels:
[1] = biological target: T1, CD137 on the surface of cells (activated human T cells; engineered CHO cells) (human, UniProt Q07011 24-255); experiment: flow cytometry on activated pan T cells gated CD8+ (donor D43867), anti-hFc APC MFI
T1 construct: whole, on cells; also called human CD137; cell surface expressed CD137
T1 sequence (Q07011 24-255, change not shown): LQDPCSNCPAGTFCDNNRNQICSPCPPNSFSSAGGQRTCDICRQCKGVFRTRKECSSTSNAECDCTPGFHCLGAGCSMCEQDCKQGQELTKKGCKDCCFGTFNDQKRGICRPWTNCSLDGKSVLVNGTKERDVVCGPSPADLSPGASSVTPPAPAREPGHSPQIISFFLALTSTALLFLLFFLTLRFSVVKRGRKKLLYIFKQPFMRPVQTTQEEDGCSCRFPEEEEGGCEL
Method: (§1) Three antibodies were selected for further study. For such evaluations, purified pan T-cells (see above) were stimulated with anti-CD3/CD28 beads (cells:beads=1:1) for 72 hours in the presence of IL-2 (100 U/mL). 100 μL of activated T cells (1.0×10⁶ cells/mL) and 100 μL of serially diluted (5- or 10-fold dilutions) test article (antibody or bispecific diabody) was added to each well of microtiter assay plate(s), mixed and incubated at RT for 45 min. The cells were washed with FACS Buffer and secondary antibody (anti-human-Fc region-APC) was then added to each well; mixed and incubated at RT for 30 min. Cells were then washed FACS Buffer and T cell surface marker antibodies (anti-CD4 labeled with V510, and anti-CD8 labeled with FITC) were then added to each well; mixed and incubated at RT for 30 min. Cells were washed and resuspended in 100 μL FACS Buffer and analyzed by flow cytometry (BD LSR Fortessa or FACSCanto 11) for cell event collection. Data analysis were performed via FloJo v10.

[2] = biological target: T1, CD137 on the surface of cells …; experiment: flow cytometry on activated pan T cells gated CD4+ (donor D43867), anti-hFc APC MFI
Method: as §1

[3] = biological target: T2, extracellular portion of human CD137 fused to a histidine-containing peptide (human, UniProt Q07011 24-186); experiment: SPR (BIACORE), against chCD137 MAB-4
T2 construct: extracellular domain; also called huCD137; His-tagged soluble human CD137
Method: (§2) Thus, an extracellular portion of human CD137 fused to a histidine-containing peptide (“huCD137”) was passed over a surface coated with immobilized antibody. Briefly, each test molecule was captured onto an F(ab)₂ goat-anti-human Fc-coated surface and then incubated in the presence of different concentrations (25 nM and 100 nM) of huCD137. The kinetics of binding were determined via BIACORE® analysis binding (normalized 1:1 Langmuir binding model).

[4] = biological target: T2, extracellular portion of human CD137 …; experiment: SPR (BIACORE); antibody captured on anti-human Fc; huCD137 25 and 100 nM; 1:1 Langmuir
Method: as §2

[5] = biological target: T2, extracellular portion of human CD137 …; experiment: Attana Cell A200 QCM; antibody captured by anti-human IgG Fc; soluble human CD137-His; grade relative to (1B.3); row with VL12
[6] = biological target: T2, extracellular portion of human CD137 …; experiment: SPR (BIACORE), against chCD137 MAB-3
Method: as §2

| Binder | EC50 (read off the curve) [1] | EC50 (read off the curve) [2] | fold decrease in binding affinity relative to the murine antibodies [3] | Kd [4] | koff [4] | kon [4] | binding result [5] | fold decrease in binding affinity relative to the murine antibodies [6] |
| --- | --- | --- | --- | --- | --- | --- | --- | --- |
| B1 | ~5 ng/mL | ~6 ng/mL |  |  |  |  |  |  |
| B2 |  |  | ~2 fold | 16.2 nM | 0.0021 s⁻¹ | 130000 M⁻¹ s⁻¹ |  |  |
| B3 | ~8 ng/mL | ~10 ng/mL |  |  |  |  |  |  |
| B4 |  |  |  |  |  |  | binds |  |
| B5 |  |  | ~2 fold | 13.6 nM | 0.0019 s⁻¹ | 140000 M⁻¹ s⁻¹ |  |  |
| B6 |  |  |  | 50 nM | 0.033 s⁻¹ | 660000 M⁻¹ s⁻¹ |  | ~2 fold |
| B7 |  |  |  | 49 nM | 0.03 s⁻¹ | 610000 M⁻¹ s⁻¹ |  | ~2 fold |
| B8 |  |  |  | 46 nM | 0.031 s⁻¹ | 670000 M⁻¹ s⁻¹ |  | ~2 fold |
